“And” between values parts separate entries of the source, which are not always exact repeats. Equal values may be shown once. Read-outs that look alike come from different tables or passages of the source.

Data set [1] concerns the target Doc1-122–His6 (DocSTm toxin) (Salmonella typhimurium). In words: SPR; Biacore S200; Doc-His6 captured on NTA chip; Phd1-73 protein as analyte, multi-cycle kinetics, eight concentrations 25 nM to 0.390625 nM, association 200 s, dissociation 1500 s; 22 C; 10 mM HEPES, 500 mM NaCl, 50 uM EDTA, 0.005% TWEEN 20, pH 8.0; kinetic 1:1 fit with constant RMAX.
The target in data set [2] is FLAG–Phd1-73 (PhdSTm antitoxin, His6 removed by thrombin) (Salmonella typhimurium). In words: SEC; HiLoad 16/600 Superdex 75pg, 4 C, Phd SEC buffer (0.025 M K2HPO4, 0.15 M NaCl, 5% glycerol, pH 8.0); mass from the manufacturer's calibration curves; last purification step.
For data set [3], the target named is Doc1-122–His6 (DocSTm toxin) (Salmonella typhimurium). In words: SPR; Biacore S200; Doc-His6 captured on NTA chip; Phd1-73 protein as analyte, multi-cycle kinetics, eight concentrations 25 nM to 0.390625 nM, association 200 s, dissociation 1500 s; 22 C; 10 mM HEPES, 500 mM NaCl, 50 uM EDTA, 0.005% TWEEN 20, pH 8.0; kinetic 1:1 fit with constant RMAX. The source holds these as a separate data set.

Data set [4] concerns DocH66Y (E. coli P1 Phage). As to conditions: cited from earlier work. From the text: (§1) page 23: Table S5. […] Organism Complex Kd (nM) SPR Kd (nM) ITC Reference S. Typhimurium Doc-Phd1-73 0.061 ± 0.019 - This study S. Typhimurium Doc-Phd52-73 (peptide 1) 0.073 ± 0.018 - This study E. coli P1 Phage Doc-Phd1-73 350 - 5 E. coli P1 Phage DocH66Y-Phd1-73 1300 - 5 E. coli P1 Phage Doc-Phd51-73 - 240 5 E. coli P1 Phage DocH66Y-Phd52-73 - 1 6 S23

Another data set deals with Doc (E. coli P1 Phage). As to conditions: ref 5 (ESI), read-out: Kd (nM) ITC; cited from earlier work.
Description: as §1

The target of data set [5] is Doc1-122–His6 (DocSTm toxin) (Salmonella typhimurium). In words: SPR; Biacore S200; Doc-His6 captured on a Series S NTA chip (200-400 RU); peptide as analyte, single-cycle kinetics, six concentrations (3-fold dilutions), 30 uL/min; 22 C; 10 mM HEPES, 500 mM NaCl, 50 uM EDTA, 0.005% TWEEN 20, pH 8.0; kinetic 1:1 fit.
The target is the same in data set [6]. The data set is described as above. This is another data set of the same source.
The target is the same in data set [7]. The description is as above. This is another data set of the same source.
The target is the same in data set [8]. Described as above. This is another data set of the same source.
Data set [9] has as its target T1, Doc toxin of Salmonella enterica serovar Typhimurium (DocSTm) (Salmonella enterica serovar Typhimurium, UniProt A0A1C9CWN5 1-126). Nature of the data set: SPR; DocSTm immobilised on a Series S NTA chip; analytes in multicycle kinetics, kinetic and/or steady-state 1:1 fit (steady-state for peptide 14); 22 °C; 10 mM HEPES, 500 mM NaCl, 50 μM EDTA, 0.005% TWEEN 20, pH 8.0. As to conditions: both partners purified.

Data set [10] addresses T1, Doc toxin of Salmonella enterica …. Nature of the data set: differential scanning fluorimetry; DocSTm 5 μM with SYPRO Orange, 25 to 95 °C; 50 μM PhdSTm or peptide 1 (Figure 2a); 20 mM K2HPO4, 50 mM (NH4)2SO4, pH 8.0; shift of the melting temperature of DocSTm. As to conditions: both partners purified.
Data set [11] has the same target. Nature of the data set: SPR; DocSTm immobilised on a Series S NTA chip (150 nM, 200-400 RU); analytes in single-cycle kinetics, typically six concentrations, kinetic 1:1 fit; 22 °C; 10 mM HEPES, 500 mM NaCl, 50 μM EDTA, 0.005% TWEEN 20, pH 8.0. The note with it: both partners purified.

In the case of “FLAG–Phd1-73 (PhdSTm antitoxin, His6 removed by thrombin) (natural protein)”, in [1], the Kd is 0.0507 nM and 0.0505 nM and 0.0883 nM; the off-rate (koff) is 3.02e-05 s⁻¹ and 2.2e-05 s⁻¹ and 3.42e-05 s⁻¹; the kon was 596000 M⁻¹ s⁻¹ and 436000 M⁻¹ s⁻¹ and 387000 M⁻¹ s⁻¹. Besides, in [2], the stoichiometry N is 2. In data set [3], this molecule had a koff of 2.9e-05 s⁻¹ and a kon of 473000 M⁻¹ s⁻¹.
Turning to “Phd1-73 (E. coli P1 Phage): full-length Phd antitoxin from E. coli P1 phage, literature values”, in data set [4] (ref 5 (ESI), read-out: Kd (nM) SPR), the Kd is 1300 nM.
For the molecule “Phd51-73 (E. coli P1 Phage): Phd residues 51-73 of E. coli P1 phage, literature value (ALDAEFASLFDTLDSTNKELVNR; UniProt Q06253 51-73, looked up, fragment)”, the Kd with Doc (E. coli P1 Phage) was 240 nM.
As to “Phd52-73 (E. coli P1 Phage): Phd residues 52-73 of E. coli P1 phage, literature value (LDAEFASLFDTLDSTNKELVNR; UniProt Q06253 52-73, looked up, fragment)”, the Kd in data set [4] (ref 6 (ESI), read-out: Kd (nM) ITC) was 1 nM.
For peptide 1 (PhdSTm52-73), the kon in data set [5] was 1.1e+06 1/(M s) (2×) and 1.6e+06 1/(M s) and 1.3e+06 1/(M s). Further, in [6], the dissociation rate constant (koff) was determined as 9.1e-05 s⁻¹ and the kon was 1.25e+06 M⁻¹ s⁻¹.
As to peptide 12 (PhdSTm52-73-N65A), in [7], the kon was 1.3e+06 1/(M s) (2×) and 1.6e+06 1/(M s) and 1.4e+06 1/(M s). In [6], this molecule displayed a Kd of 0.145 nM, a koff of 0.000203 s⁻¹ and a kon of 1.4e+06 M⁻¹ s⁻¹.
Consider peptide 19 (PhdSTm52-73-K73A), for which the on-rate constant (kon) in [8] was 1.08e+06 M⁻¹ s⁻¹ and 2.12e+06 M⁻¹ s⁻¹ and 1.28e+06 M⁻¹ s⁻¹. In [6], this molecule yielded a Kd of 0.087 nM, a koff of 0.000126 s⁻¹ and a kon of 1.44e+06 M⁻¹ s⁻¹.

B1: Phd antitoxin of Salmonella enterica serovar Typhimurium, full-length (PhdSTm) (natural protein)
chain: MFMRTVNYSEARQNLAEVLESAVTGGPVTITRRGHKSAVIISAEEFERYQTARMDDEFAAIMAVHGNELRELADK
notes: also called PhdSTm 1-73; full-length Phd antitoxin
For B1, the “half-life of the complex” value in data set [9] was approximately 7 h. In addition, the “ΔTm of DocSTm (DSF)” value in [10] was 31.3 ± 0.9 °C.

B2: peptide 1 (Phd 52-73, Ac-WMDDEFAAIMAVHGNELRELADK-OH) (peptide)
peptide: Ac-WMDDEFAAIMAVHGNELRELADK-OH
notes: tryptophan introduced at the N-terminus for spectrophotometric quantification; not part of Phd; also called wild-type peptide 1; C-terminal Phd peptide; source: synthetic peptide
As to B2, the Kd in data set [11] is 0.073 nM. Also, in data set [10], the “ΔTm of DocSTm (DSF)” value came out at 28.8 ± 0.9 °C.
